Assay results from patent publication US20110045002A1 (BRIGHAM AND WOMEN S HOSPITAL, published 2011).

T1: Tim-2 on CHO-Tim-2 transfectants (mouse, UniProt Q8R183 22-305)
T1 sequence: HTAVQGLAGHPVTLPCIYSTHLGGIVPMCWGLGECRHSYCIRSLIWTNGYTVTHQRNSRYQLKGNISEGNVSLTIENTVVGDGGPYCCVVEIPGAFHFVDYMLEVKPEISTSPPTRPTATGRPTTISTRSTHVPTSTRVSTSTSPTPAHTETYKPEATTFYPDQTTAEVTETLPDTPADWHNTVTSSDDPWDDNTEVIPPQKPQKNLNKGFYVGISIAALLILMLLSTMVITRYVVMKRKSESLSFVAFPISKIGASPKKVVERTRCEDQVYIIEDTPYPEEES

T2: Tim-4 on CHO or HEK293 transfectants (Tim-4-pDisplay construct, N-terminal HA tag, Tim-4 signal sequence … (mouse, UniProt Q6U7R4 30-343))
T2 construct: also called Tim-4 transfectants; CHO-Tim-4; not shown: N-terminal HA tag of the pDisplay vector
T2 sequence: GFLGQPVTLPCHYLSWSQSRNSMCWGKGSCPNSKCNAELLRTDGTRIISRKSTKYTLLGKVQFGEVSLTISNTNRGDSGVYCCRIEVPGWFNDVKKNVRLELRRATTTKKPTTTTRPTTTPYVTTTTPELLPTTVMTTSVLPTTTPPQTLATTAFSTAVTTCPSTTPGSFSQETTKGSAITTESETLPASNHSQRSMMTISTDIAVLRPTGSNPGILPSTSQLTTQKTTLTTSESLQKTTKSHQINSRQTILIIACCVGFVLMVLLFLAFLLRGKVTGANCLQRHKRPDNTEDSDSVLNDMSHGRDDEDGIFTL

T3: Tim-1 on CHO-Tim-1 transfectants (CHO-K1 cells transfected with pEF6 containing murine Tim-1 cDNA) (murine, UniProt Q5QNS5 22-305)
T3 sequence: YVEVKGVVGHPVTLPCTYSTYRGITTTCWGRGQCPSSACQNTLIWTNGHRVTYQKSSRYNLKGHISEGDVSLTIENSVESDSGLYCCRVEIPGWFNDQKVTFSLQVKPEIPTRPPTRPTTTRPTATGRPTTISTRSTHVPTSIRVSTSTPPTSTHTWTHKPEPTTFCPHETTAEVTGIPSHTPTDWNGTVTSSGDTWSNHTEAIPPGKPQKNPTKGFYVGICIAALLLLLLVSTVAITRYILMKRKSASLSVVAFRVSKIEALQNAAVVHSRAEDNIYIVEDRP


Tests used:
[1] = molecular target: T1, Tim-2 on CHO-Tim-2 transfectants; experiment: flow cytometry, cell surface staining of CHO transfectants
[2] = molecular target: T4, Tim-3 on CHO-Tim-3 transfectants (UniProt Q8VIM0 20-281, limits assumed); experiment: as above
T4 construct: whole, on cells

[3] = molecular target: T2, Tim-4 on CHO or HEK293 transfectants …; experiment: as above
[4] = molecular target: T3, Tim-1 on CHO-Tim-1 transfectants …; experiment: as above
[5] = molecular target: T2, Tim-4 on CHO or HEK293 transfectants …; experiment: flow cytometry, cell surface staining of CHO transfectants (FIG. 14A)

T4 sequence (Q8VIM0 20-281 limits assumed): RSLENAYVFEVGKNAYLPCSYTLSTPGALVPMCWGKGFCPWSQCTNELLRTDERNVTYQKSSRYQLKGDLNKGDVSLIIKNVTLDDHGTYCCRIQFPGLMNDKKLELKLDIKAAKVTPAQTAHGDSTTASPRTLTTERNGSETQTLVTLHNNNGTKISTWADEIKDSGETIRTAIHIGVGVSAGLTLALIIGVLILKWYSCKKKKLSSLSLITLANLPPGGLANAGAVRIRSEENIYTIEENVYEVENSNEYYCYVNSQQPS

| Binder | binding result [1] | binding result [2] | binding result [3] | binding result [4] | binding result [5] |
| --- | --- | --- | --- | --- | --- |
| Tim-4-Ig (soluble Ig fusion polypeptide: extracellular IgV and mucin domains of Tim-4 fused to a human IgG1 Fc tail) (Fc fusion, Made by Chimerigen; also called tim-4:Ig fusion; not shown: human IgG1 Fc tail) FLGQPVTLPCHYLSWSQSRNSMCWGKGSCPNSKCNAELLRTDGTRIISRKSTKYTLLGKVQFGEVSLTISNTNRGDSGVYCCRIEVPGWFNDVKKNVRLELRRATTTKKPTTTTRPTTTPYVTTTTPELLPTTVMTTSVLPTTTPPQTLATTAFSTAVTTCPSTTPGSFSQETTKGSAITTESETLPASNHSQRSMMTISTDIAVLRPTGSNPGILPSTSQLTTQKTTLTTSESLQKTTKSHQINSRQTIL | no binding | no binding | no binding |  |  |
| Tim-2-Ig (Tim-2 extracellular IgV and mucin domains fused to human IgG1 Fc tail) (Fc fusion, Only the extracellular IgV and mucin part stood in the assay; also called Tim2/Fc; not shown: human IgG1 Fc tail) HTAVQGLAGHPVTLPCIYSTHLGGIVPMCWGLGECRHSYCIRSLIWTNGYTVTHQRNSRYQLKGNISEGNVSLTIENTVVGDGGPYCCVVEIPGAFHFVDYMLEVKPEISTSPPTRPTATGRPTTISTRSTHVPTSTRVSTSTSPTPAHTETYKPEATTFYPDQTTAEVTETLPDTPADWHNTVTSSDDPWDDNTEVIPPQKPQKNLNKG | no binding | no binding | no binding | no binding |  |

The next lines start with the values.

| binding result [1] | binding result [2] | binding result [3] | binding result [4] | binding result [5] | Binder |
| --- | --- | --- | --- | --- | --- |
| no binding | no binding |  | no binding | binds | Tim-1-Ig, full-length (Tim-1 extracellular IgV and mucin domains fused to human IgG1 Fc tail) (Fc fusion, Only the extracellular IgV and mucin part stood in the assay; also called Tim1/Fc; full-length Tim-1-Ig; not shown: human IgG1 Fc tail) YVEVKGVVGHPVTLPCTYSTYRGITTTCWGRGQCPSSACQNTLIWTNGHRVTYQKSSRYNLKGHISEGDVSLTIENSVESDSGLYCCRVEIPGWFNDQKVTFSLQVKPEIPTRPPTRPTTTRPTATGRPTTISTRSTHVPTSIRVSTSTPPTSTHTWTHKPEPTTFCPHETTAEVTGIPSHTPTDWNGTVTSSGDTWSNHTEAIPPGKPQKNPTKG |
|  |  |  |  | binds | Tim-1-Ig containing only the Tim-1 IgV domain (Fc fusion, also called Tim-1-Ig (IgV only); Tim-1-Ig fusion polypeptide (containing only the Tim-1 IgV domain); not shown: Ig Fc tail) SYVEVKGVVGHPVTLPCTYSTYRGITTTCWGRGQCPSSACQNTLIWTNGHRVTYQKSSRYNLKGHISEGDVSLTIENSVESDSGLYCCRVEIPGWFNDQKVTFSLQVKP |
